According to patent US7569660 (UNIVERSITY OF CHICAGO, dated 2009):

Molecular target: the molecule itself

B1: NM R2E2 repeat expansion variant (other)
chain: MSDSNQGNNQQNYQQYSQNGNQQQGNNRYQGYQAYNAQAQPAGGYYQNYQGYSGYQQGGYQQYNPQGGYQQYNPQGGYQQYNPDAGYQQQYNPQGGYQQYNPQGGYQQQFNPQGGRGNYKNFNYNNNLQGYQAGFQPQSQGMSLNDFQKQQKQAAPKPKKTLKLVSSSGIKLANATKKVGTKPAESDKKEEEKSAETKEPTKEPTKVEEPVKKEEKPVQTEEKTEEKSELPKVEDLKISESTHNTNNANVTSADALIKEQEEEVDDEVVND
rate of conversion to a β-sheet rich structure relative to wild-type NM: ~2 fold
